Measured values as given in the domain aggregation screens of Martell et al. (2025).

assay: soluble fraction after stress (log2 fold change); higher = more stays soluble; pooled small domains, quantitative proteomics; conditions: stress: 75 degC
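Further: 20 min heating vs room temperature control held 20 min.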

Sequence | soluble fraction (log2)
HMGIDVSAFSDTALEVLRLQAAGYTTREIAQQLHITQRTVKYHASENYRKLDARNLVDAVQIAQSLHI | -1.5
HMGIEIKLLMSFMTDSGRKVSLFVTDPREDVTETEIKQVMDLIIEKNIFAPNGEDIVSAKEAKIVQT | -1.35
HMGIERTNADTSFSVNVYGKELIITSNKPLVVNIYAIDGTLVRTEQVTIGVNTVSGLPSGIYVVGQQKVVI | -1.1
HMGIIVDMSKIKQMLQLSEAGHSNRKIALELGINKETVNNYMQLIRNGRLDIRQLLKMDDPELERRFHA | -0.965
HMGIKLSDRQMQIVEIVKSQQPITSEQVAERLNLTRAALRSDLSILTMAGILEARPKVGYSLTGR | -1.97
HMGILPDDVKLNIKEAKKIGFPIMLKAIHGGGGRGMMIVQSEDEFADAMKITKTEAKNSFGNGDLYFEKFF | 0.408
HMGITRQQALQQINQSASPKKILNASLGKRGSEFVWDIGYLSKSGKLNYVTYSFRSGEQLNAIKN | -1.03
HMGIVAGGTQSIATLRAIDTTDAQLYPDKILINVEDAGLYRLDRQSTATDDGNQVIKPTVGVGRWLKMTS | -0.15
HMGIVVDGTMTLEGVAERYGMSVGELARVIGVPPEYSNERLGRLRKSYEFEMDDIRIYIIQKQ | -1.54
HMGKAYMVPDVKNKSVNQAQLLLADKHMNGVVVDSSYVKELPAGIVLDQTPVGGMKVKEGRTVYLTINSD | 0.156
HMGKDIYLTSGWVEKFDELNEFSNSVDNYDRLNQFGMYENAIIGDTGVIKITDEMIFDLYEKIQVPVEAGP | -0.0582
HMGKEDLTAAIKKMTLNDKLDIHKIVANFQTNDSEEVITAVKWLMENNYLLKIKNNYTWNTKEK | -0.901
HMGKHYLLKDDNGTITIYKILEDGTQEVYEKTEISTTYLPQTDNIGIKQGIRVNGDEALNELIENF | -0.0623
HMGKKGPELSENEKSIFSILSKSGSMDLTTLKEASGLSNKQWDKGIKGLGKHGLTKVIKTEDALLVEVV | 0.0471
HMGKKYVPGMAVKLSAVPLYAASTSKVPSTHVTGTYYLWDDEVVRGRLRITNLKSRVGISGQVTGWIDKDR | -1.95
HMGKNIQAIRYKNNMTQDQVVAKLNLMGISITKSTYAKLETNRMNIKASELVALAKLFHTDINAFFSG | -3.12
HMGKNYYEILGITKSASEEQVRKAFRGLAMEWHPDRNRSADSEERFKEINEAYQVLIDPKKRQMYDQYGR | 0.394
HMGKPSSEELEALGRRTLEENVDVVEEILGGRDPKGKKIKYLEGLMMRALRGQETPEAVRRTLEELIFK | -0.132
HMGKRGKEMQTAVLAILRASDRPYSAYELLESLKDIYPKIAPPTVYRALAALTQRGQIRRLESLNAFI | -0.221
HMGKRKDFTYTGNYFSEYKNQTFPSLSSFLKLVGKYENYGTIKRRVRFGWDIDEAILRENIN | -1.94
HMGKSKAAQSSLVRSIMHQISDKNRGPMPLSEIIDRASIQSIDEAIVRSLVSRMKEQGEIYEPSLGTYEF | -0.105
HMGKTIIQLATDYLIKNMQPKSLHDIESYVLTRKKIKKSSIGAILLSKPNIFGRTEDGLFGLRIWNNFQYT | -1.37
HMGKTRSTDRTRRAILDAASDLMGKHGTSVSLARIAEAAGMSKGGLLHHFPSRNDLIRALGED | 0.011

Sequence | soluble fraction (log2)
HMGKVNTRNRNEGKFYKNGKKKPANWEYRFEAAPVNGKRQQISDAGYPTEKAAYEAGIAAYEKYNSAGSVN | -0.0957
HMGKVTILSNPVKDALVIMGLHNAETIDVRLFDNTGRLVMQGSQSRMDISSLSPGLYILQVNGKILKVIK | -3.2
HMGLASEVKTEDVLNEEKYDFEPDLIGNNNEAIYQNKQTGSYVLFDRNQNKVTKVLSAGEVLNHSKYNE | -0.138
HMGLDQNTLDRVDDINDTLATGIEIGPETRGTIEELNETLANGLKAGFDEETLARVDELLRVVEDGLK | 0.0586
HMGLGQRIKARREALGLSQARLGEAVGVSLQAVSNWERDEYLPDTARLPLIARALGLTPGQLME | -0.182
HMGLKDTEVYMPDVRGLIEEEAQTKLKASFLTMKVSYTSSDEVKKGYVISQAPSADSVVLKGASVTVIVS | -2.56
HMGLLVPELTAEENVSLAAMIAGVPRQQARSISADLLNRLGLGQMLDRRMGEMSGGQAQRVAIAPIYGKF | -0.408
HMGLNVSYRMDGENVVETIIFSGATMIRTVTPTGTMTIKTIENGSTSTAKVNADYSVYKKIYEAQY | -2.69
HMGLPLETVVTHATKLEIVRDGRVSGSIGLSAGVKVDVIALEGDNLQVRYRSLSGRVPVAHTGLAALA | -1.58
HMGLPPIATGVNDNMSFSQAFAAARAEVGAGGAFEWHGRVYGTYYKNEWDGMSAQERHDFEIAAIRGS | -0.0369
HMGLSIPLMGAKASDIEISTLNDEVQRKLKIIVKEQGHENLQRVVPLPSEAREIQAHFINGRLHLR | 0.0158
HMGLYPYSGTPADNQEANERRIFDIYSTHLERIFSDFSGATLRTKRLVLRLMQELVHSDPVRMAGILDEL | 0.0962
HMGMAQELMESRLTAVFTSGKDQLAVLQRKDGSTLKLGADSKPWRIESFDGRKAVFVSADQQRVERLL | -0.342
HMGMGIGQIIKEKRTALKMTQNELAERLGVSQQSVTGWENNAAVPRESAVRGMMDIFGLSRNELFGEP | 0.389
HMGMMTLGQRIAQYRKAMGISQEELGGRLGVSRQAVSKWETDAAAPDMENLLALAREFGVSVAELTETP | -0.187
HMGMTRPLFVTDPGLVRIGLVSPIFEKLGSGKLSPQLFDQVKEDPPEQTVFDGVEFARETGIDGVIGFG | 0.00642
HMGMVDKSMYSRYDVGDLVKVLRGPLEGSEGHITEINTDTGTVKVETVFFGRSTVVEVDFSEIDK | -1.37
HMGNAQELQKKLEGLKGISGIEKLESDHYAEKYLVRITQPVDHKNPAAGTFTQRVIVAHVGFDRPTILVT | 0.51
HMGNHRNMSAEEEAAILAPFKARAEAGELVEISEIAKAYQSAVDHPISRGQIYFVLHRHGWRKV | -1.2
HMGNIALAIARFREMIAEDPNLQPVRLHLAMALMADHQDEAARGQLEKLRSDQLPDDIRKIVDDALAALR | -1.46
HMGNIIITPNPASDFIKIISNSPIIKFGFYDIYGNTINKKFNDNSINISDLPVGMYLINLNERYFKLLK | -0.259
HMGNIITQEAAVKLAQDRVPNATLVKIEYDFDDGRPVYEGELREGRWEYEFEIDAATGEFLKWEKD | 0.0823
HMGNKWKPIILYLLSNGSMRFGMLNALIPTISKKVLTNQLKELENDGLLLRQSFAEIPPRVEYSLTEKA | -2.31

Sequence | soluble fraction (log2)
HMGNLASGAYEQIKRRILSLEYLPGSILQERGLAEELGISRTPVREAIHRLSQEGWLKINSRKNIRVR | -2.32
HMGNLASRVAEQLLDKMRGDSLVPGTRLPSEIAMAKHFGVSRTVMREAIARLKADGLLETRRGSGAFVLAT | -0.973
HMGNLEENFRLKAGTEDGAWEFIRYHLGKLPVVNESNGTAIVNAERQAFLLFDRMVAFHIQRGVMVPLSAP | -0.0214
HMGNLVDGINKKLTHVRDSLPEGYTLDEFKSAFQQQYPAAYDAYEGDKGKQFDKWLGNVIQSLPKK | 0.0554
HMGNNSIDIKDVIYNLVEISQLQAFDIVKHFKTWENLVNKPDELDTVIDGDSDIVDRIKYKIKSLS | 0.344
HMGNQALSSVLSDIAGIGPVKTKELLRVYPDLDSLRQAPVEEVAKVKGIGRQLAQKIHDHFSSR | -0.0292
HMGNRWENLISNKMIDDVDEELLRKYIAQAHDAGRIAISYTDRKTVLNQLELTDGDRLLNAGKVLFSD | -0.392
HMGNTTEVLVATQDVKANTKIKESMFTTERVDTASLPDNYLSADSAKDVVGYYTYIGFTKGSVISKSNIAT | 0.625
HMGNVRSWKGWTSAGGTRVQMRQGDSINSMARRYGVPIQAIVAVNGIDDPAKVQPGQSVIIPTYVY | -0.29
HMGNWEQQLRSWADGELATGKQDILTTAVPAFERALIETALSHTNGRKRDAAELLGWGRNTLTRKLKELGM | -0.401
HMGNYEEAILAFEAAIKIDPKNADAYRKLAEAYEKTGDEDAALRTLETGAEATGDRELADLAEKKRQELDA | -0.0773
HMGPASTGAHQLGLKPGDEVTHRAWGEGVVTSTTGEGDRAEAVVDFDAVGEKRLLLAWAPLER | 0.0111
HMGPDTVDRTRRFKWVDNEVVVNFGKNAGRTLRDLAENDPGFLRWIVRSDFSDEVRTIANDALMGKFPTRK | -0.283
HMGPEAFPVPYVVDIELDRAIYVIEQSGFIVGQKLEANDNNVPRGFVISQNPPAGTKLGPESIVDLVVSS | -1.16
HMGPLDIAQLKSDFLGGDAQLARRAWDQLATKAGDEGRDFLISSLGSSDPQIRNRVALGIHES | 0.069
HMGPLTMGQRIVRLRTQAGLSQDALAEQLGVSRQSVSKWETDGSVPDLDRLVKLSKVFGVTLDELVKG | -0.202
HMGPPAVGAKLQVLRQARKLSLDELSRRAGVSKSMLSQVERNLANPTVAVLWRLATALGVGLADFLSP | -3.02
HMGPRVSAGPGRHRVQPGDTLDDIAARYRVSSRDLMLVNGLRNANHVEAGQTLKLPSNAVIA | 0.15
HMGPSLIRIASNPVAEVFIDGTRVGTTPFEMPADGTLKTVRLTAKDHDDLVVPLRSMKSMEIMLTLRRI | -2.54
HMGPTLTDEEEVVLNLLEKNHPVLLSELKENAGLSNKKWDKAIKGLSAHKLAKVTKTDDGLFVHLS | 0.615
HMGPTPTSAQLTEAKRLRTKLDDLNPELAERLWSEHREPYTETQYQTLIEKLAAEVQSAEGEIGR | 0.222
HMGPVRRDLEINGRMVPLTIREHARATRITLRIEPGGQALRLTIPPGLPTREVDSFLTRHHGWLMTKLAHI | -2.47
HMGPWTETAAKGDAVSKRMLITWLQENADAEFLAAQKLTGQATSVAKRVTKDQLVELYLSVTTAA | -1.42
